“And” between values parts separate entries of the source, which are not always exact repeats. Equal values may be shown once. Where no end group is shown, it is not given here. The star is where a group is joined. Palmitoyl = CCCCCCCCCCCCCCCC(=O)*; Octanoyl = CCCCCCCC(=O)*; C12H21O = C12 acyl
What was measured:
[1] = TEM imaging of self-assembled nanostructures (diameter); type: physicochemical; conditions: water; for diameter of nanofibers / nanobelts (TEM): pH 7.4, aged overnight; for diameter of smallest filaments (TEM): pH 7.4, double-chain alkylated IAs
Procedure: Self-Assembly of Immuno-Amphiphiles and TEM Imaging Immuno-amphiphiles with 1 mM concentration were pretreated with HFIP and then dissolved in 1×PBS or deionized water and aged overnight at room temperature; 10 μL of 10 fold diluted sample was spotted on a carbon film copper grid with 400 square mesh (from EMS: Electron Microscopy Sciences) and the excess was removed with filter paper to leave a thin film of sample on the grid. After letting the sample dry for 5 minutes, 10 μL of 2% uranyl acetate was added to sample grid, and the excess was removed after 30 seconds. All samples were dried for at least 3 hours before TEM imaging.

[2] = Critical micelle concentration (CMC) measurement with Nile Red; type: physicochemical; conditions: deionized water
Procedure: CMC Measurement. […] The stock solution of Nile Red was initially prepared by dissolving the dye in acetone at 50 μM. 10 μL stock solution was loaded into several centrifuge tubes, where the solvent evaporates under room temperature to yield the dry mass of Nile Red. Various concentrations of the peptide solutions were prepared in deionized water, and then identical volume was added into the centrifuge tubes containing dry Nile Red and aged overnight. Fluorescent spectra of Nile Red were then monitored by a Fluorolog fluorometer (Jobin Yvon, Edison, NJ) with fixed excitation wavelength at 560 nm; emission spectra were monitored 580-720 nm. The CMC of IAs is determined by a blue-shift of the emission maximum, whereas this transition occurs as the incubated peptides exceed their CMC values.
To deeply understand the differences between single-chain and double-chain alkylated IAs with fragmented antibody binding peptides, further studies on CMC and secondary structures were conducted. The critical micelle concentration (CMC) values for various IAs were measured using Nile Red, a lipophilic dye that fluoresces depending on solvent polarity. Intensive fluorescence upon exposure to hydrophobic environments can be strongly quenched and red-shifted in aqueous media. When incubated with IAs at different concentrations in aqueous solution, Nile Red prefers to partition into the hydrophobic core offered by the self-assembled nanostructures and the CMC of IAs was determined when a blue-shift of the emission maximum occurred. […] Similarly, CMC values for C16-Helix2, Helix1-2C8, and 2C8-Helix2 can be obtained from FIG. 8B-8D.

[3] = Circular dichroism (CD) spectroscopy of peptide secondary structure; type: physicochemical; conditions: 100 μM in water at pH 7.4
IgG = IgG (Homo sapiens, UniProt P01857); assay: IgG binding and precipitation by co-assembled immunofibers with 1 M ammonium sulfate (ProA column quantification); conditions: mixed with IgG, 10:1 binding molecule to IgG
Chain of IgG (P01857 1-330 isoform P01857-1): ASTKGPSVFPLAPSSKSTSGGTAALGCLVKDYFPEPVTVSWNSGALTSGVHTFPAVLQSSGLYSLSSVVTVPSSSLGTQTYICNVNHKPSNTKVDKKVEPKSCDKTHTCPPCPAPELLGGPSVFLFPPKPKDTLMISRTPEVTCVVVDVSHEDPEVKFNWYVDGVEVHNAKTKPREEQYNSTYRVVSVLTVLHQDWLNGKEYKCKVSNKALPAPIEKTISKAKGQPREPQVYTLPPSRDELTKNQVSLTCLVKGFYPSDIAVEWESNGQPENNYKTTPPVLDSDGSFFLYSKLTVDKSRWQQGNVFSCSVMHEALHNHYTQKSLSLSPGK
Procedure: To investigate the IgG binding and precipitation ability with the new immunofibers binding system, 100 μl of desired immunofibers solution was incubated with IgG (with a 10:1 molar ratio of C12-VVKKGG(SEQ ID NO: 9) -Z33 and IgG) for half an hour followed by adding ammonium sulfate to a final concentration of 1 M to trigger the precipitation of the immunofibers and IgG. […] After centrifuging down the precipitates and analyzing the IgG concentration in the supernatant, about 30% IgG were precipitated out from the solution. IgG concentration was quantified with a ProA column (TSKgel® Protein A-5PW, 20 μm, 35×4.6 mm) monitored at 280 nm.
To increase the IgG binding efficiency and optimal precipitation condition in the co-assembled immunofibers binding system, several factors will continue to be optimized including the ratio of binding molecules to spacer molecules, the ratio of binding molecules to IgG, salt concentration, binding and salting time, and so on. The molar ratio of C12-VVEE (SEQ ID NO: 10) and C12-VVKKGG(SEQ ID NO: 9) -Z33 and the molar ratio of C12-VVKKGG(SEQ ID NO: 9) -Z33 were firstly studied and preliminary results were shown in FIG. 21. At a 10:2 molar ratio of C12VVKKGG(SEQ ID NO: 9) -Z33 to IgG and 1 M ammonium sulfate, 5 molar ratios of C12-VVEE (SEQ ID NO: 10) to C12-VVKKGG(SEQ ID NO: 9) -Z33 (5:1, 10:1, 25:1, 50:1, 100:1) were tested. […]

[4] = Thioflavin T (ThT) spectroscopic assay for β-sheet; type: physicochemical; conditions: 100 μM in deionized water
Procedure: Thioflavin T (ThT) Spectroscopic Assay. A ThT stock solution was prepared in deionized water at 50 μM. […] The fluorescence intensity was then measured by a Fluorolog fluorometer (Jobin Yvon, Edison, NJ) with excitation at 440 nm (slit width 5 nm) and emission at 482 nm (slit width 10 nm).
To further confirm the component of secondary structures in the self-assembled IAs, a fluorescent dye Thioflavin-T (ThT) with large enhancement of its fluorescence emission upon binding to β-sheet surfaces was used to examine the existence of β-sheet secondary structures in Helix1-based IAs.

Substance	diameter of nanofibers / nanobelts (TEM) [1]	CMC [2]	Main Secondary Structure (100 μM) [3]	diameter of smallest filaments (TEM) [1]	precipitation after addition of ammonium sulfate (observation) (IgG)	ThT fluorescence emission at 482 nm compared with pure ThT solution [4]
C16H31O- PNLNEEQRNAKIKSIRDD (SEQ ID NO: 5) (Palmitoyl-PNLNEEQRNAKIKSIRDD) [C16-Helix2]	12.4±1.7 nm	0.5 to 1 µM	β-sheet	–	–	–
FNMQQQRRFYEALHDKK(SEQ ID NO: 4)-(C8H15O)2 (not fully specified (residues 16, 17); also: two C-terminal octanoyl chains (C8H15O)2, places not given here) [Helix1-2C8]	10-70 nm	10 to 20 µM	α-helix	11.0±1.4 nm	–	–
FNMQQQRRFYEALHDK (SEQ ID NO: 3)-C8H15O (not fully specified (residue 16); also: C-terminal C8 acyl (C8H15O), attachment not given here) [Helix1-C8]	–	>100 µM	Random coil	–	–	–
FNMQQQRRFYEALHD [Helix1]	–	–	random coil	–	–	–
(C8H15O)2-KPNLNEEQRNAKIKSIRDD (SEQ ID NO: 7) (not fully specified (residue 1, N-terminus); printed as (C8H15O)2-KPNLNEEQRNAKIKSIRDD; also: two octanoyl chains (C8H15O)2 at N-terminal Lys, places not given here) [2C8-Helix2]	22.9±1.5 nm	5 to 10 µM	α-helix	9.3±1.3 nm	–	–
C12-VVKKGG (SEQ ID NO: 9) -Z33: binding molecule: C12 alkyl tail at N-terminus, VVKKGG spacer between the carbon chain and binding peptide Z33	–	–	–	–	no precipitation was observed	–
C8H15O- PNLNEEQRNAKIKSIRDD (SEQ ID NO: 5) (Octanoyl-PNLNEEQRNAKIKSIRDD) [C8-Helix2]	–	>100 µM	Random coil	–	–	–
C12H21O- PNLNEEQRNAKIKSIRDD (SEQ ID NO: 5) (C12H21O-PNLNEEQRNAKIKSIRDD) [C12-Helix2]	–	2 to 5 µM	α-helix	–	–	–
FNMQQQRRFYEALHDK(SEQ ID NO: 3)-C12H21O (FNMQQQRRFYEALHDK(C12H21O); not fully specified) [Helix1-C12]	12.2±1.4 nm and 12.9±0.9 nm	5 to 10 µM	β-sheet	–	–	–
PNLNEEQRNAKIKSIRDD [Helix2]	–	–	random coil	–	–	–
FNMQQQRRFYEALHDK(SEQ ID NO: 3)-C16H31O (not fully specified (residue 16); also: C-terminal C16 acyl (C16H31O), attachment not given here) [Helix1-C16]	9.6±1.3 nm and 9.5±1.2 nm	0.5 to 1 µM	β-sheet	–	–	dramatic increase of fluorescence

Reference: US12357965B2, “Supramolecular filamentous assemblies for protein purification” (The Johns Hopkins University, priority 2017, dated 2025)
